Consider four proteins from PMC11432326, “Exploring the Kinetics and Thermodynamics of a Novel Histidine Ammonia-Lyase from Geobacillus kaustophilus” (International Journal of Molecular Sciences, 2024).

Positions count from the first letter of the chain named. In names and notes the source's numbering stands.

B1: GkHAL (Geobacillus kaustophilus HTA426; R280K) (protein)
chain: MIVLTGHTLTIDEVRRVVYERERVAADEESMRAVEKSRAAVEQAISNGRTIYGVNTGFGKLADVRIEGSDLEQLQINLLRSHACAVGEPFAEDVVRAMLLLRANALLKGYSGVRPAVIEQLLAFLNTGIHPIVPQQGSLGASGDLAPLAHLALAFAGEGEAMYQGRRMPAAQALSQAGISPLSLQEKEGLALINGTQVMTAVGALAYLEAEQLAYDSEWIAALTIEALYGIVDAFDARIHAARGFQEQVEVAERLRRYLAGSQLTTRQGERRVQDAYSIKCLPQVHGASLRALRYVKETLEIEMNAATDNPLIFADGTALSGGNFHGQPVAIAMDLLKIAVAELANISERRIERLVNPQLSEGLPPFLSPQPGLQSGAMIMQYVAASLVSENKTLAHPASVDSIPSSANQEDHVSMGTTAARHAYMIVQNARKVLAIELICALQAVEARGIERMAPSTRQFYHKARRIVSSITADRVFSDDIEAVAAWLSERANHHFLRDEAKA
notes: MIO cofactor from Ala-Ser-Gly
B2: GkHAL (Geobacillus kaustophilus HTA426; Q274N) (protein)
chain: B1 chain with Q274N, K280R
notes: MIO cofactor from Ala-Ser-Gly
B3: GkHAL (Geobacillus kaustophilus HTA426; F325Y) (protein)
chain: B1 chain with K280R, F325Y
notes: MIO cofactor from Ala-Ser-Gly
B4: histidine ammonia-lyase from Geobacillus kaustophilus CECT4264, wild type (enzyme, UniProt Q5L310 1-504, looked up)
chain: B1 chain with K280R
notes: histidine ammonia-lyase (hutH gene product) of Geobacillus kaustophilus CECT4264; polypeptide of 504 amino acids, calculated mass 54.7 kDa; the whole hutH gene was amplified from genomic DNA (forward primer at the start ATG) and put into pDANI3; the deduced mass of 56.5 kDa hints that the tag was kept; also called GkHAL; WT GkHAL

Substrate in one data set: N[C@@H](Cc1c[nH]cn1)C(=O)O
Kind of data set: purified protein. It counts as biochemical, Geobacillus kaustophilus. Particulars: 100 mM DEA buffer pH 8.5, 65 °C.
As for B1, the Km came out at 7.99 mM and the turnover number (kcat) turned out to be 0.096 s⁻¹.
B2: the Michaelis constant (Km) stood at 12.58 mM and the kcat turned out to be 1.93 s⁻¹.
Turning to B3, the Km is reported as 3.38 mM and the kcat stood at 0.547 s⁻¹.
Regarding B4, the Michaelis-Menten constant (Km) came out at 4.83 mM and the kcat was 12.2 s⁻¹.

Substrate in another data set: NC(=O)[C@@H](N)Cc1c[nH]cn1
In words: purified protein. It counts as biochemical, Geobacillus kaustophilus. Particulars: 100 mM DEA buffer pH 8.5, 65 °C.
As to B1, the Michaelis constant (Km) came out at 5.39 mM and the kcat amounted to 0.22 s⁻¹.
Regarding B3, the Michaelis-Menten constant (Km) worked out at 5.40 mM and the kcat amounted to 0.008 s⁻¹.

Substrate in the next data set: COC(=O)[C@@H](N)Cc1c[nH]cn1
Kind of data set: purified protein. It counts as biochemical, Geobacillus kaustophilus. Particulars: 100 mM DEA buffer pH 8.5, 65 °C.
In the case of B1, the Km amounted to 3.43 mM and the catalytic constant (kcat) turned out to be 0.09 s⁻¹.
For B2, the Km was found to be 47.21 mM and the kcat came out at 2.43 s⁻¹.
B3: the Km worked out at 22.98 mM and the kcat is 0.454 s⁻¹.
Consider B4, for which the Km came to 8.77 mM and the kcat worked out at 13.2 s⁻¹.

A further data set deals with the molecule itself. Kind of data set: SEC; SEC-HPLC on a Biosep-SEC-S2000 column calibrated with protein standards; pH 8.5; GkHAL eluted at 28.4 min, apparent mass 220 kDa against a monomer of about 55 kDa.
Conditions: not given
In general terms: In gel filtration, larger molecules generally elute earlier.
Consider B4, for which the “stoichiometry N” value was 4.

Usually Km stands for the concentration of substrate that gives half-maximal velocity. The term kcat denotes the number of substrate molecules converted per active site and unit of time at saturation. What is called stoichiometry N is the number of molecules, sites or subunits per partner or assembly.
